Experimental data taken from US20220372155A1 (LYVGEN BIOPHARMA, published 2022).
Each block holds one binder with its values, some of them ahead of it.

Columns and labels:
[1] = molecular target: T1, human CD40 expressed on CHO cells (human, UniProt P25942 21-277); assay: FACS, CHO cells
T1 construct: whole, on cells; also used for the reporter cells over-expressing human CD40; also called cellular CD40; CHO-CD40 cells

[2] = molecular target: T2, human B7H4 expressed on CHO cells (human, UniProt Q7Z7D3 25-282); assay: FACS, CHO cells
T2 construct: whole, on cells; also called VCTN1
T2 sequence (looked up): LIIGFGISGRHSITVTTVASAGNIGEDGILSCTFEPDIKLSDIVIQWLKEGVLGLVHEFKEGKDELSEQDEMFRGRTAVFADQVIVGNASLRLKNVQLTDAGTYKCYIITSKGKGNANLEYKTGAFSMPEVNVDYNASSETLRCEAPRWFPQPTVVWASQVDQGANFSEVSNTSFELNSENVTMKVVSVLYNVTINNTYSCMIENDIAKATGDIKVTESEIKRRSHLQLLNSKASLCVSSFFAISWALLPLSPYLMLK

T1 sequence (P25942 21-277): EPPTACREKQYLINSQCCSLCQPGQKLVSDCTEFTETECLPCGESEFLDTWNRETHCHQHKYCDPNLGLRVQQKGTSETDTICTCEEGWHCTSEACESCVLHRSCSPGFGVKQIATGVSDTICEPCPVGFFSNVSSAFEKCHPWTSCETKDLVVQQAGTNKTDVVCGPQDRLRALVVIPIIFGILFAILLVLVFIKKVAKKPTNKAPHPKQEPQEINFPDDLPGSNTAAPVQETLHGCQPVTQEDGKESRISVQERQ

B1: Ly825 (bispecific antibody, human IgG1, kappa)
heavy: EVQLVESGGGLVQPGGSLRLSCAASGFTFTDYTMDWVRQAPGKGLEWVADVNPNSGGSIYNQRFKGRFTLSVDRSKNTLYLQMNSLRAEDTAVYYCARNLGPSFYFDYWGQGTLVTVSSASTKGPSVFPLAPSSKSTSGGTAALGCLVKDYFPEPVTVSWNSGALTSGVHTFPAVLQSSGLYSLSSVVTVPSSSLGTQTYICNVNHKPSNTKVDKKVEPKSCDKTHTCPPCPAPELLGPSVFLFPPKPKDTLMISRTPEVTCVVVDVSHEDPEVKFNWYVDGVEVHNAKTKPREEQYNSTYRVVSVLTVLHQDWLNGKEYKCKVSNKALPAPIEKTISKAKGQPREPQVYTLPPSREEMTKNQVSLTCLVKGFYPSDIAVEWESNGQPENNYKTTPPVLDSDGSFFLYSKLTVDKSRWQQGNVFSCSVMHEALHNHYTQKSLSLSPG
light: not shown
notes: Ly591 HC (IgG1 mutated Fc) + Ly591 LC-TM740 scFv VL-VH
binding result [1]: binds

B2: Ly835 (bispecific antibody, human IgG1, kappa)
heavy: B1 heavy
light: not shown
notes: Ly591 HC (IgG1 mutated Fc) + Ly591 LC-Ly253 scFv VL-VH
binding result [1]: binds

B3: Ly828 (bispecific antibody, human IgG1, kappa)
heavy: B1 heavy
light: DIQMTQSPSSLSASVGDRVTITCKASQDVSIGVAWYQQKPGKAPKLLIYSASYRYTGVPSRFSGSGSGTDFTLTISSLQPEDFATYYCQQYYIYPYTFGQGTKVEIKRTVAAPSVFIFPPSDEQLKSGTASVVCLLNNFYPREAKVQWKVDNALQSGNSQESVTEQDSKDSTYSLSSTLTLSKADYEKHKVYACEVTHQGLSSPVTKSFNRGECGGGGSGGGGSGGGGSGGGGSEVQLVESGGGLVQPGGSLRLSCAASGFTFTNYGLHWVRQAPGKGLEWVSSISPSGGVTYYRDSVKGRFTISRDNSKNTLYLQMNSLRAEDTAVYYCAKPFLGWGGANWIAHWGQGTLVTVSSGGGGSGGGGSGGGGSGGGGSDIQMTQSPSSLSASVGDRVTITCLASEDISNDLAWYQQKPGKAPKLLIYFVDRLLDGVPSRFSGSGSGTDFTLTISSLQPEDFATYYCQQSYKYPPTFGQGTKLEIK
notes: Ly591 HC (IgG1 mutated Fc) + Ly591 LC-TM559 scFv VH-VL
binding result [1]: binds

B4: Ly836 (bispecific antibody, human IgG1, kappa)
heavy: B1 heavy
light: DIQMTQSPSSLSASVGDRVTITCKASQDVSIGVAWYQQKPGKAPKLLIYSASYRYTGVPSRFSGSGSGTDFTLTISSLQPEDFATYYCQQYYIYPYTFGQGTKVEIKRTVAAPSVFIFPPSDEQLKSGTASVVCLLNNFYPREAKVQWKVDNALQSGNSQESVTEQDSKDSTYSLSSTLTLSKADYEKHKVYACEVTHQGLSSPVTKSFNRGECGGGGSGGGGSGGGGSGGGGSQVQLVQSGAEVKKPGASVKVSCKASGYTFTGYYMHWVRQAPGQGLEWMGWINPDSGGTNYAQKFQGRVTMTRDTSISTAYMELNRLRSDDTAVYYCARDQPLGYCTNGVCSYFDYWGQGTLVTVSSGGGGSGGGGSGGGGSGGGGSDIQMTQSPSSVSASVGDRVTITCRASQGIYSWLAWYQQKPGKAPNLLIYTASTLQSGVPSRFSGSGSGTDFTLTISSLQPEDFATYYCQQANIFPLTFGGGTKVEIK
notes: Ly591 HC (IgG1 mutated Fc) + Ly591 LC-Ly253 scFv VH-VL
binding result [1]: binds

B5: Ly826 (bispecific antibody, human IgG1, kappa)
heavy: B1 heavy
light: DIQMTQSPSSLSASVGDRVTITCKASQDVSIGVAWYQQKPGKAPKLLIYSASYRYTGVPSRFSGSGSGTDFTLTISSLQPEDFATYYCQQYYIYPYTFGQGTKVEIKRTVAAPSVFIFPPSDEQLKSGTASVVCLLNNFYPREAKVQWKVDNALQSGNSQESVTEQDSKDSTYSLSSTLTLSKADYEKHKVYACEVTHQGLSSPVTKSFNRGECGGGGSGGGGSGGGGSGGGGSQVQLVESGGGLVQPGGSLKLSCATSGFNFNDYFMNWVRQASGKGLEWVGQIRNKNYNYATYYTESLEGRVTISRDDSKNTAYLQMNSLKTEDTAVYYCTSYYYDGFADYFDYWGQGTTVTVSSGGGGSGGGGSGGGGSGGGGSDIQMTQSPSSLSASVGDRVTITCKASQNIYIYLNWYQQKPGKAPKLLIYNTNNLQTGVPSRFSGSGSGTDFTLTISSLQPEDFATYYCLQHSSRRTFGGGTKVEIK
notes: Ly591 HC (IgG1 mutated Fc) + Ly591 LC-TM740 scFv VH-VL
binding result [1]: binds

B6: Ly827 (bispecific antibody, human IgG1, kappa)
heavy: B1 heavy
light: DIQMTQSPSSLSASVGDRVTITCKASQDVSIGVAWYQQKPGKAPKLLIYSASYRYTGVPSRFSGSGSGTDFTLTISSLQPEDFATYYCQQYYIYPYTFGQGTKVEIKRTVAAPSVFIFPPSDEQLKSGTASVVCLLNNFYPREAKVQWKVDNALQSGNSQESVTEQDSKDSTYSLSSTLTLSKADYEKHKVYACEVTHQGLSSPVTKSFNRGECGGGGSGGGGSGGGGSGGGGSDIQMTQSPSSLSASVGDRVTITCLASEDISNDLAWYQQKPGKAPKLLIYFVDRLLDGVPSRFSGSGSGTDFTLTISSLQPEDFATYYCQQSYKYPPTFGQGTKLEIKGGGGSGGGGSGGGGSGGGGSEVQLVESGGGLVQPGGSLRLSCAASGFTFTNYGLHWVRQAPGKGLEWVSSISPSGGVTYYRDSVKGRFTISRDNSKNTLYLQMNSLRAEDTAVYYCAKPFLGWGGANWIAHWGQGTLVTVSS
notes: Ly591 HC (IgG1 mutated Fc) + Ly591 LC-TM559 scFv VL-VH
binding result [1]: binds

B7: Ly813 (bispecific antibody, human IgG1, kappa)
heavy: not shown
light: ENVLTQSPAIMSVSPGEKVTMTCRASSSVSSSYLHWYQQKSGASPKFWIYSTSNLASGVPARFSGSGSGTSYSLTISSVEAEDAATYYCQHYSGYPLTFGAGTKLELRRTVAAPSVFIFPPSDEQLKSGTASVVCLLNNFYPREAKVQWKVDNALQSGNSQESVTEQDSKDSTYSLSSTLTLSKADYEKHKVYACEVTHQGLSSPVTKSFNRGEC
notes: Ly387 HC (IgG1 mutated Fc)-Ly253 scFv VL-VH + Ly387 LC
binding result [1]: binds

B8: Ly814 (bispecific antibody, human IgG1, kappa)
heavy: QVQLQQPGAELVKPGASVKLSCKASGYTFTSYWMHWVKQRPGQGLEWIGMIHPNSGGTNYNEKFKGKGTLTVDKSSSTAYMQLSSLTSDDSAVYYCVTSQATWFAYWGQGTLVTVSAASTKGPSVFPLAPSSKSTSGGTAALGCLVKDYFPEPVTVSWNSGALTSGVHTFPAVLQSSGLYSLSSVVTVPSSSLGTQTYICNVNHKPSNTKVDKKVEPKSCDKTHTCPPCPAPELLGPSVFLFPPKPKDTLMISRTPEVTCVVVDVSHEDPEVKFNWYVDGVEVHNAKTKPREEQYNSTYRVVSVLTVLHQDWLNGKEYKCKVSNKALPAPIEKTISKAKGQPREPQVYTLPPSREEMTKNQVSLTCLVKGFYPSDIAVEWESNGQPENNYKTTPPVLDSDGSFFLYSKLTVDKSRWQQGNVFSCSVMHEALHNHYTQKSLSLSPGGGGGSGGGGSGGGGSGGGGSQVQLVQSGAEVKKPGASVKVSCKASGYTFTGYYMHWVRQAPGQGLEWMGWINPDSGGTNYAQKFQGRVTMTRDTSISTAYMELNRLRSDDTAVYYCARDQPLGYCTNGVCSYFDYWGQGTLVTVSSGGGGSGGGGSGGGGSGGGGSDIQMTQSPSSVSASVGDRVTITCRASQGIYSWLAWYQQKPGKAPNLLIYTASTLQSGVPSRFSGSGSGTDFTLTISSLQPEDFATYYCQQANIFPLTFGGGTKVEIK
light: B7 light
notes: Ly387 HC-Ly253 scFv VH-VL + Ly387 LC
binding result [1]: binds

B9: Ly361 (chimeric) (antibody, human IgG1, kappa, V domains shown)
VH: EVQLVESGGDLVKPGGSLKLSCAASGFTFSSYGMSWVRQTPDKRLEWVAAISTGGSYTYYPDSVKGRFTISRDTATNTLYLQMSTLKSEDTAMYYCTRRGATGSWFAYWGQGTLVTVSA
VL: DILMTQSPSSMSVSLGDTVSITCHASQGINNNIGWLQRKPGKSFKGLIYHGTNLEDGVPSRFSGSGSGADYSLTISSLESEDFADYYCVQYVQFPRTFGGGTKLEIKR
notes: chimeric, human IgG1 constant region; also called hybridoma 14D3
binding result [2]: binds

More lines, now with the values ahead:

binding result [1]: binds
B10: Ly624 (bispecific antibody, human IgG1, kappa)
heavy: EVQLVESGGGLVQPGGSLRLSCAASGFTFTDYTMDWVRQAPGKGLEWVADVNPNSGGSIYNQRFKGRFTLSVDRSKNTLYLQMNSLRAEDTAVYYCARNLGPSFYFDYWGQGTLVTVSSASTKGPSVFPLAPSSKSTSGGTAALGCLVKDYFPEPVTVSWNSGALTSGVHTFPAVLQSSGLYSLSSVVTVPSSSLGTQTYICNVNHKPSNTKVDKKVEPKSCDKTHTCPPCPAPELLGPSVFLFPPKPKDTLMISRTPEVTCVVVDVSHEDPEVKFNWYVDGVEVHNAKTKPREEQYNSTYRVVSVLTVLHQDWLNGKEYKCKVSNKALPAPIEKTISKAKGQPREPQVYTLPPSREEMTKNQVSLTCLVKGFYPSDIAVEWESNGQPENNYKTTPPVLDSDGSFFLYSKLTVDKSRWQQGNVFSCSVMHEALHNHYTQKSLSLSPGGGGGSGGGGSGGGGSGGGGSDIQMTQSPSSLSASVGDRVTITCLASEDISNDLAWYQQKPGKAPKLLIYFVDRLLDGVPSRFSGSGSGTDFTLTISSLQPEDFATYYCQQSYKYPPTFGQGTKLEIKGGGGSGGGGSGGGGSGGGGSEVQLVESGGGLVQPGGSLRLSCAASGFTFTNYGLHWVRQAPGKGLEWVSSISPSGGVTYYRDSVKGRFTISRDNSKNTLYLQMNSLRAEDTAVYYCAKPFLGWGGANWIAHWGQGTLVTVSS
light: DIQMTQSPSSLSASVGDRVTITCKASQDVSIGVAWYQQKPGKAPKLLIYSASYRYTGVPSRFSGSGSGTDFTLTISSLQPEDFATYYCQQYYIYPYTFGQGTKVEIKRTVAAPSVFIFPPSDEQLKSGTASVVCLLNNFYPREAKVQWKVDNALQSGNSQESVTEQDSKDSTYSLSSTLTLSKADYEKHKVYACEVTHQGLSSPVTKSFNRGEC
notes: Ly591 HC (IgG1 mutated Fc)-TM559 (printed TM599) scFv VL-VH + Ly591 LC

binding result [1]: binds
B11: LP3772 (antibody, human IgG4 S228P, kappa)
heavy: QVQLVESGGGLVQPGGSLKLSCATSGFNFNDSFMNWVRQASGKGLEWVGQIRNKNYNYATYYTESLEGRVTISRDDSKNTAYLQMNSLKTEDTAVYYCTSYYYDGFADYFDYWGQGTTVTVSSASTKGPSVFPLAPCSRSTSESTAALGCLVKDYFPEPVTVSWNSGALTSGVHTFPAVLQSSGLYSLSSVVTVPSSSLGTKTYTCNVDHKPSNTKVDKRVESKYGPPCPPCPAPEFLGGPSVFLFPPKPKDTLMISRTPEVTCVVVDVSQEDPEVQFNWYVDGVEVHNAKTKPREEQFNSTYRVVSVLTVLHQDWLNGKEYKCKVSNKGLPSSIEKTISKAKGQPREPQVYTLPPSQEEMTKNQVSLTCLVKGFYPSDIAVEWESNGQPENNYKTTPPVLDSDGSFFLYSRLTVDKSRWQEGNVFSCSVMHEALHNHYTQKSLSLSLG
light: DIQMTQSPSSLSASVGDRVTITCKASQNIYIYLNWYQQKPGKAPKLLIYNTNNLQTGVPSRFSGSGSGTDFTLTISSLQPEDFATYYCLQHSSRRTFGGGTKVEIKRTVAAPSVFIFPPSDEQLKSGTASVVCLLNNFYPREAKVQWKVDNALQSGNSQESVTEQDSKDSTYSLSSTLTLSKADYEKHKVYACEVTHQGLSSPVTKSFNRGEC
notes: VH-2/IgG4, VL-1/kappa

binding result [1]: binds
B12: Ly622 (bispecific antibody, human IgG1, kappa)
heavy: EVQLVESGGGLVQPGGSLRLSCAASGFTFTDYTMDWVRQAPGKGLEWVADVNPNSGGSIYNQRFKGRFTLSVDRSKNTLYLQMNSLRAEDTAVYYCARNLGPSFYFDYWGQGTLVTVSSASTKGPSVFPLAPSSKSTSGGTAALGCLVKDYFPEPVTVSWNSGALTSGVHTFPAVLQSSGLYSLSSVVTVPSSSLGTQTYICNVNHKPSNTKVDKKVEPKSCDKTHTCPPCPAPELLGPSVFLFPPKPKDTLMISRTPEVTCVVVDVSHEDPEVKFNWYVDGVEVHNAKTKPREEQYNSTYRVVSVLTVLHQDWLNGKEYKCKVSNKALPAPIEKTISKAKGQPREPQVYTLPPSREEMTKNQVSLTCLVKGFYPSDIAVEWESNGQPENNYKTTPPVLDSDGSFFLYSKLTVDKSRWQQGNVFSCSVMHEALHNHYTQKSLSLSPGGGGGSGGGGSGGGGSGGGGSDIQMTQSPSSLSASVGDRVTITCKASQNIYIYLNWYQQKPGKAPKLLIYNTNNLQTGVPSRFSGSGSGTDFTLTISSLQPEDFATYYCLQHSSRRTFGGGTKVEIKGGGGSGGGGSGGGGSGGGGSQVQLVESGGGLVQPGGSLKLSCATSGFNFNDYFMNWVRQASGKGLEWVGQIRNKNYNYATYYTESLEGRVTISRDDSKNTAYLQMNSLKTEDTAVYYCTSYYYDGFADYFDYWGQGTTVTVSS
light: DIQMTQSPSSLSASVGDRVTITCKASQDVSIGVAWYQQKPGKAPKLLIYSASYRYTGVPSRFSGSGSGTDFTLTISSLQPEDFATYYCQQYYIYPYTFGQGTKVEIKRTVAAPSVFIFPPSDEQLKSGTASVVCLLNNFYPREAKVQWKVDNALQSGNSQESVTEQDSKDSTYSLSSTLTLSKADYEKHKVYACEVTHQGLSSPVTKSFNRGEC
notes: Ly591 HC (IgG1 mutated Fc)-TM740 scFv VL-VH + Ly591 LC

binding result [1]: binds
B13: Ly809 (bispecific antibody, human IgG1, kappa)
heavy: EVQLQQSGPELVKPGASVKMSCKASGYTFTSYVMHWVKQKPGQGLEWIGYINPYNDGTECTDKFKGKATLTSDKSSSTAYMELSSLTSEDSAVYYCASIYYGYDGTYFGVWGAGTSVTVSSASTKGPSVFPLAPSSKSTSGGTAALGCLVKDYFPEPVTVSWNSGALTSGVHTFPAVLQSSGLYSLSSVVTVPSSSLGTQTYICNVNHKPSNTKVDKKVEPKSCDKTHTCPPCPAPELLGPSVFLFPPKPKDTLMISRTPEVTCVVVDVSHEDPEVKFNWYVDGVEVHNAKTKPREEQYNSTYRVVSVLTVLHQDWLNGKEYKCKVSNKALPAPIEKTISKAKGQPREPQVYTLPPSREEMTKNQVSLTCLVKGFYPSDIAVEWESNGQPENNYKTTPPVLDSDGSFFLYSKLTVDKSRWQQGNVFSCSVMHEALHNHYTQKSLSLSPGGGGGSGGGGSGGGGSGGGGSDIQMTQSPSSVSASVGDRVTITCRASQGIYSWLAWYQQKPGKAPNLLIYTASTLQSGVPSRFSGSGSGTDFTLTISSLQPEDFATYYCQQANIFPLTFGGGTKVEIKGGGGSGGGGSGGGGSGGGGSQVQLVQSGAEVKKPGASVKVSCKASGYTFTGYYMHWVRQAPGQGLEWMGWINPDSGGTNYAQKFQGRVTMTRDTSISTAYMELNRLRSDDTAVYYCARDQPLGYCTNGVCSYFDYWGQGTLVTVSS
light: QIVLSQSPAILSTSPGEKVTMTCRASSSVSYMHWYQQKPGSSPKPWIYATSNLASGVPARFSGSRSGTSYSLTISRVEAEDAATYYCQQWSSNTLTFGGGTKLELKRTVAAPSVFIFPPSDEQLKSGTASVVCLLNNFYPREAKVQWKVDNALQSGNSQESVTEQDSKDSTYSLSSTLTLSKADYEKHKVYACEVTHQGLSSPVTKSFNRGEC
notes: Ly383 HC (IgG1 mutated Fc)-Ly253 scFv VL-VH + Ly383 LC

binding result [1]: binds
B14: Ly810 (bispecific antibody, human IgG1, kappa)
heavy: not shown
light: B13 light
notes: Ly383 HC (IgG1 mutated Fc)-Ly253 scFv VH-VL + Ly383 LC

binding result [1]: binds
B15: Ly815 (bispecific antibody, human IgG1, kappa)
heavy: QVQLQQPGAELVKPGASVKLSCKASGYTFTSYWMHWVKQRPGQGLEWIGMIHPNSGGTNYNEKFKGKGTLTVDKSSSTAYMQLSSLTSDDSAVYYCVTSQATWFAYWGQGTLVTVSAASTKGPSVFPLAPSSKSTSGGTAALGCLVKDYFPEPVTVSWNSGALTSGVHTFPAVLQSSGLYSLSSVVTVPSSSLGTQTYICNVNHKPSNTKVDKKVEPKSCDKTHTCPPCPAPELLGPSVFLFPPKPKDTLMISRTPEVTCVVVDVSHEDPEVKFNWYVDGVEVHNAKTKPREEQYNSTYRVVSVLTVLHQDWLNGKEYKCKVSNKALPAPIEKTISKAKGQPREPQVYTLPPSREEMTKNQVSLTCLVKGFYPSDIAVEWESNGQPENNYKTTPPVLDSDGSFFLYSKLTVDKSRWQQGNVFSCSVMHEALHNHYTQKSLSLSPG
light: not shown
notes: Ly387 HC (IgG1 mutated Fc) + Ly387 LC-Ly253 scFv VL-VH

binding result [1]: binds
B16: Ly816 (bispecific antibody, human IgG1, kappa)
heavy: B15 heavy
light: not shown
notes: Ly387 HC (IgG1 mutated Fc) + Ly387 LC-Ly253 scFv VH-VL

binding result [1]: binds
B17: Ly625 (bispecific antibody, human IgG1, kappa)
heavy: EVQLVESGGGLVQPGGSLRLSCAASGFTFTDYTMDWVRQAPGKGLEWVADVNPNSGGSIYNQRFKGRFTLSVDRSKNTLYLQMNSLRAEDTAVYYCARNLGPSFYFDYWGQGTLVTVSSASTKGPSVFPLAPSSKSTSGGTAALGCLVKDYFPEPVTVSWNSGALTSGVHTFPAVLQSSGLYSLSSVVTVPSSSLGTQTYICNVNHKPSNTKVDKKVEPKSCDKTHTCPPCPAPELLGPSVFLFPPKPKDTLMISRTPEVTCVVVDVSHEDPEVKFNWYVDGVEVHNAKTKPREEQYNSTYRVVSVLTVLHQDWLNGKEYKCKVSNKALPAPIEKTISKAKGQPREPQVYTLPPSREEMTKNQVSLTCLVKGFYPSDIAVEWESNGQPENNYKTTPPVLDSDGSFFLYSKLTVDKSRWQQGNVFSCSVMHEALHNHYTQKSLSLSPGGGGGSGGGGSGGGGSGGGGSEVQLVESGGGLVQPGGSLRLSCAASGFTFTNYGLHWVRQAPGKGLEWVSSISPSGGVTYYRDSVKGRFTISRDNSKNTLYLQMNSLRAEDTAVYYCAKPFLGWGGANWIAHWGQGTLVTVSSGGGGSGGGGSGGGGSGGGGSDIQMTQSPSSLSASVGDRVTITCLASEDISNDLAWYQQKPGKAPKLLIYFVDRLLDGVPSRFSGSGSGTDFTLTISSLQPEDFATYYCQQSYKYPPTFGQGTKLEIK
light: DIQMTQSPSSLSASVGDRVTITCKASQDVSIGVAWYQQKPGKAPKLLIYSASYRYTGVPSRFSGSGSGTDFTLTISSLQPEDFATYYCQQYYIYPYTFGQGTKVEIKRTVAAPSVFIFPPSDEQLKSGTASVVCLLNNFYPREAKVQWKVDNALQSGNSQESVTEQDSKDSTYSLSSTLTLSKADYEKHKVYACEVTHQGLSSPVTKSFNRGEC
notes: Ly591 HC (IgG1 mutated Fc)-TM559 (printed TM599) scFv VH-VL + Ly591 LC

binding result [1]: binds
B18: Ly623 (bispecific antibody, human IgG1, kappa)
heavy: EVQLVESGGGLVQPGGSLRLSCAASGFTFTDYTMDWVRQAPGKGLEWVADVNPNSGGSIYNQRFKGRFTLSVDRSKNTLYLQMNSLRAEDTAVYYCARNLGPSFYFDYWGQGTLVTVSSASTKGPSVFPLAPSSKSTSGGTAALGCLVKDYFPEPVTVSWNSGALTSGVHTFPAVLQSSGLYSLSSVVTVPSSSLGTQTYICNVNHKPSNTKVDKKVEPKSCDKTHTCPPCPAPELLGPSVFLFPPKPKDTLMISRTPEVTCVVVDVSHEDPEVKFNWYVDGVEVHNAKTKPREEQYNSTYRVVSVLTVLHQDWLNGKEYKCKVSNKALPAPIEKTISKAKGQPREPQVYTLPPSREEMTKNQVSLTCLVKGFYPSDIAVEWESNGQPENNYKTTPPVLDSDGSFFLYSKLTVDKSRWQQGNVFSCSVMHEALHNHYTQKSLSLSPGGGGGSGGGGSGGGGSGGGGSQVQLVESGGGLVQPGGSLKLSCATSGFNFNDYFMNWVRQASGKGLEWVGQIRNKNYNYATYYTESLEGRVTISRDDSKNTAYLQMNSLKTEDTAVYYCTSYYYDGFADYFDYWGQGTTVTVSSGGGGSGGGGSGGGGSGGGGSDIQMTQSPSSLSASVGDRVTITCKASQNIYIYLNWYQQKPGKAPKLLIYNTNNLQTGVPSRFSGSGSGTDFTLTISSLQPEDFATYYCLQHSSRRTFGGGTKVEIK
light: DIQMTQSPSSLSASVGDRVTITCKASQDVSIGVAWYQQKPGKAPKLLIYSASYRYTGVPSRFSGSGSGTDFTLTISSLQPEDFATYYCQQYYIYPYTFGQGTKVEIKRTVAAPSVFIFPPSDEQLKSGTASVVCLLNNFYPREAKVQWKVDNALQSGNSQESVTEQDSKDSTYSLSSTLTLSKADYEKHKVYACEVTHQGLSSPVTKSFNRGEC
notes: Ly591 HC (IgG1 mutated Fc)-TM740 scFv VH-VL + Ly591 LC
